# Laboratory results from patent US5082772A, “Process for preparing deacetylcephalosporin C” (priority 1988, dated 1992).
# B1: recombinantly produced DAOC synthase (Streptomyces clavuligerus) (protein)
# chain: MDTTVPTFSLAELQQGLHQDEFRRCLRDKGLFYLTDCGLTDTELKSAKDLVIDFFEHGSEAEKRAVTSPVPTMRRGFTGLESESTAQITNTGSYSDYSMCYSMGTADNLFPSGDFERIWTQYFDRQYTASRAVAREVLRATGTEPDGGVEAFLDCEPLLRFRYFPQVPEHRSAEEQPLRMAPHYDLSMVTLIQQTPCANGFVSLQAEVGGAFTDLPYRPDAVLVFCGAIATLVTGGQVKAPRHHVAAPRRDQIAGSSRTSSVFFLRPNADFTFSVPLARECGFDVSLDGETATFQDWIGGNYVNIRRTSKA
# notes: made in house; host or cells: Escherichia coli K12 JM109 (plasmid pOW382)
# B2: native synthase (Streptomyces clavuligerus) (protein)
# chain: B1 chain
# notes: native synthase, evaluated with the partially purified enzyme; endogenous in cells; host or cells: Streptomyces clavuligerus cells, crude extract, three-step purification (Mono Q eluate)
# What was measured:
# [1] = substrate: CC1(C)S[C@@H]2[C@H](NC(=O)CCC[C@@H](N)C(=O)O)C(=O)N2[C@H]1C(=O)O; assay: Kinetics of recombinant enzyme (Lineweaver-Burk); type: biochemical, Streptomyces clavuligerus; settings: other: recombinant enzyme, pH 7.0, 50 mM HEPES buffer, 36° C.
# Procedure: The kinetics of the native enzyme and recombinant enzyme were determined under the optimal reaction conditions for the enzyme, i.e., at pH 7.0 in 50 mM HEPES buffer at 36° C.
# [2] = substrate: O=C(O)CCC(=O)C(=O)O; assay: purified protein, by the assay type; settings: 36° C.
# [3] = substrate: CC1(C)S[C@@H]2[C@H](NC(=O)CCC[C@@H](N)C(=O)O)C(=O)N2[C@H]1C(=O)O; assay: Kinetics of native synthase, partially purified (Mono Q eluate); type: biochemical, Streptomyces clavuligerus; settings: other: native partially purified enzyme, Tris-HCl buffer, 36° C., pH 7.0
Protein,Km [1] [µM],"Km ([2]; other: recombinant enzyme, pH 7.0, 50 mM HEPES buffer) [µM]","Km ([2]; other: native partially purified enzyme, Tris-HCl buffer, pH 7.0) [µM]",Km [3] [µM]
B1,29,18,,
B2,,,22,35
